Measured values published in paper PMC2829074.
Each block holds one molecule with its values, some of them ahead of it. Ends that are not written are not given here.

Experiments:
Cyr61/CCN1 = Cyr61/CCN1 (UniProt O00622); test: ELISA; competitive ELISA: wells coated with multimeric VTNC (25 ng/well); Cyr61 (30 nM) co-incubated for 90 minutes with increasing concentrations of soluble VTNC forms, SMTB 1–44 or ixolaris; VTNC-bound Cyr61 detected with anti-Cyr61 antibody
[1] = molecular target: denatured multimeric human vitronectin (VTNC) (human)
[2] = molecular target: somatomedin B domain (SMTB 1–44) of vitronectin (human); test: ELISA; competition: SMTB 1–44 (1.25 µg/well) immobilized; Cyr61 (30 nM) mixed with stable mutant PAI-1 (0, 50, 500 nM) or ixolaris (500 nM) in PBS-T, added for 90 minutes; bound Cyr61 detected with anti-Cyr61 antibody
[3] = molecular target: somatomedin B domain (SMTB 1–44) of vitronectin (human); test: SPR; kinetics, Biacore T100: monomeric (667.4 RU) or multimeric (625.2 RU) VTNC or SMTB 1–44 (337.2 RU) immobilized on CM5 by amine coupling; analyte injected 90 s at 30 µl/minute, 25°C, HBS-P (10 mM Hepes pH 7.4, 150 mM NaCl, 0.005% P20); Cyr61 fitted by the global two-state (conformational change) model, PAI-1 by the Langmuir 1:1 model
[4] = molecular target: denatured multimeric human vitronectin (VTNC) (human); test: ELISA; solid-phase binding assay as a3 on multimeric VTNC, in TBS 0.4% Tween supplemented with 0.5% gelatin; apparent KD
[5] = molecular target: denatured multimeric human vitronectin (VTNC) (human); test: ELISA; solid-phase binding assay: VTNC (25 ng/well) or SMTB 1–44 (2.5 µg/well) immobilized on plates, Cyr61 0–1 µM in PBS-0.4% Tween 20 for 90 minutes, detected with anti-Cyr61 monoclonal antibody; apparent KD by Langmuir isotherm
[6] = molecular target: native monomeric human vitronectin (VTNC) (human); test: as above
[7] = molecular target: somatomedin B domain (SMTB 1–44) of vitronectin (human); test: as above
[8] = molecular target: denatured multimeric human vitronectin (VTNC) (human); test: SPR; kinetics, Biacore T100: monomeric (667.4 RU) or multimeric (625.2 RU) VTNC or SMTB 1–44 (337.2 RU) immobilized on CM5 by amine coupling; analyte injected 90 s at 30 µl/minute, 25°C, HBS-P (10 mM Hepes pH 7.4, 150 mM NaCl, 0.005% P20); Cyr61 fitted by the global two-state (conformational change) model, PAI-1 by the Langmuir 1:1 model
[9] = molecular target: native monomeric human vitronectin (VTNC) (human); test: as above
[10] = molecular target: PAI-1 (recombinant stable mutant form) (UniProt P05121); test: ITC; VP-ITC, 30°C, 5 µL injections of 10 µM SMTB 1–44 into 1 µM PAI-1 or Cyr61 in the cell; 20 mM Tris-HCl, 0.15 M NaCl, pH 7.4; single-site model

Molecule: PAI-1 (recombinant stable mutant form) (from UniProt P05121 24-402) (natural protein)
inhibition of adhesion of uPAR-bearing PMA-differentiated U937 cells to VTNC-coated wells pre-incubated with stable mutant PAI-1 (1.5 µM); pair blocked: uPAR with VTNC [1]: > 90%
percent inhibition of Cyr61 binding to SMTB 1–44 at 500 nM PAI-1 [2]: > 80%
Kd [3]: 0.0433 nM
koff [3]: 0.0001 s⁻¹
kon [3]: 2.31e+06 M⁻¹ s⁻¹

B1: Cyr61/CCN1 (natural protein)
chain: TCPAACHCPLEAPKCAPGVGLVRDGCGCCKVCAKQLNEDCSKTQPCDHTKGLECNFGASSTALKGICRAQSEGRPCEYNSRIYQNGESFQPNCKHQCTCIDGAVGCIPLCPQELSLPNLGCPNPRLVKVTGQCCEEWVCDEDSIKDPMEDQDGLLGKELGFDASEVELTRNNELIAVGKGSSLKRLPVFGMEPRILYNPLQGQKCIVQTTSWSQCSKTCGTGISTRVTNDNPECRLVKETRICEVRPCGQPVYSSLKKGKKCSKTKKSPEPVRFTYAGCLSVKKYRPKYCGSCVDGRCCTPQLTRTVKMRFRCEDGETFSKNVMMIQSCKCNYNCPHANEAAFPFYRLFNDIHKFRD
inhibition of adhesion of uPAR-bearing PMA-differentiated U937 cells to VTNC-coated wells pre-incubated with Cyr61 (1.5 µM); pair blocked: uPAR with VTNC [1]: 40%
Kd [4]: 36.5 nM
Kd [5]: 22.6 nM
Kd [6]: 26.5 nM
Kd [7]: 27.2 nM
Kd [8]: 27.6 nM
ka1 (two-state model, step 1) [8]: 104000 M⁻¹ s⁻¹
ka2 (two-state model, step 2) [8]: 0.00255 s⁻¹
kd1 (two-state model, step 1) [8]: 0.0695 s⁻¹
kd2 (two-state model, step 2) [8]: 0.00011 s⁻¹
Kd [9]: 5.66 nM
ka1 (two-state model, step 1) [9]: 568000 M⁻¹ s⁻¹
ka2 (two-state model, step 2) [9]: 0.00783 s⁻¹
kd1 (two-state model, step 1) [9]: 0.0245 s⁻¹
kd2 (two-state model, step 2) [9]: 0.00118 s⁻¹
Kd [3]: 10.1 nM
ka1 (two-state model, step 1) [3]: 127000 M⁻¹ s⁻¹
ka2 (two-state model, step 2) [3]: 0.0109 s⁻¹
kd1 (two-state model, step 1) [3]: 0.025 s⁻¹
kd2 (two-state model, step 2) [3]: 0.000592 s⁻¹

Continued, values first:

percent inhibition of Cyr61 binding to immobilized VTNC at 15 µg/ml (Cyr61/CCN1): > 50%
Molecule: denatured multimeric human vitronectin (VTNC) (natural protein)

Kd [10]: < 1 nM
dH [10]: -24 kcal/mol
stoichiometry N [10]: 0.77
B2: somatomedin B domain (SMTB 1–44) of vitronectin (peptide)
peptide: DQESCKGRCTEGFNVDKKCQCDELCSYYQSCCTDYTAECKPQVT
modifications: disulfide (positions not given here); also: eight oxidized cysteines, pairing not given here
